Data from the supplement of paper PMC9112550, “Optimization of the antimicrobial peptide Bac7 by deep mutational scanning” (BMC Biology, 2022).

Test system: Escherichia coli TOP10
Experiment: shrunken log2 fold change of peptide-encoding DNA abundance (4.5 h post-induction vs induction); higher = less antimicrobial activity (less host growth inhibition)
Conditions: time post-induction: 4.5 h; library: site-saturation at positions 5, 18, 19, 20
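Also: peptides expressed intracellularly from a pBAD plasmid library in pooled LB shake-flask culture, induced with 0.3% L-arabinose, DNA abundance read by NGS, three biological replicates, DESeq2 with apeglm shrinkage.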

Sequence	shrunken log2 fold change
RRIRQRPPRLPRPRPRPDNFPRP	0.013
RRIRQRPPRLPRPRPRPDNIPRP	-0.00584
RRIRQRPPRLPRPRPRPDNRPRP	-0.00104
RRIRQRPPRLPRPRPRPDPDPRP	-0.00136
RRIRQRPPRLPRPRPRPDQHPRP	0.00878
RRIRQRPPRLPRPRPRPDRLPRP	-0.0692
RRIRQRPPRLPRPRPRPDSNPRP	-0.382
RRIRQRPPRLPRPRPRPDTRPRP	0.00157
RRIRQRPPRLPRPRPRPDTTPRP	0.0217
RRIRQRPPRLPRPRPRPDYCPRP	-0.163
RRIRQRPPRLPRPRPRPDYSPRP	-0.0839
RRIRQRPPRLPRPRPRPDYTPRP	-0.0424
RRIRQRPPRLPRPRPRPEDHPRP	-0.0311
RRIRQRPPRLPRPRPRPEDVPRP	-0.0612
RRIRQRPPRLPRPRPRPEEKPRP	0.00355
RRIRQRPPRLPRPRPRPEESPRP	0.0313
RRIRQRPPRLPRPRPRPEETPRP	-0.0125
RRIRQRPPRLPRPRPRPEFDPRP	0.00351
RRIRQRPPRLPRPRPRPEGQPRP	-0.0666
RRIRQRPPRLPRPRPRPEHWPRP	0.0788
RRIRQRPPRLPRPRPRPEKGPRP	-0.017
RRIRQRPPRLPRPRPRPELYPRP	-0.113
RRIRQRPPRLPRPRPRPEMQPRP	0.0355
RRIRQRPPRLPRPRPRPENSPRP	-0.0723
RRIRQRPPRLPRPRPRPEPGPRP	0.485

Sequence	shrunken log2 fold change
RRIRQRPPRLPRPRPRPEPHPRP	0.0864
RRIRQRPPRLPRPRPRPEPLPRP	0.287
RRIRQRPPRLPRPRPRPEQRPRP	0.0426
RRIRQRPPRLPRPRPRPESLPRP	-0.00178
RRIRQRPPRLPRPRPRPETIPRP	-0.0395
RRIRQRPPRLPRPRPRPEVKPRP	-0.0062
RRIRQRPPRLPRPRPRPEVVPRP	0.196
RRIRQRPPRLPRPRPRPEWQPRP	0.00709
RRIRQRPPRLPRPRPRPEWVPRP	3.27
RRIRQRPPRLPRPRPRPEYTPRP	-0.11
RRIRQRPPRLPRPRPRPFAFPRP	0.087
RRIRQRPPRLPRPRPRPFCEPRP	-0.0314
RRIRQRPPRLPRPRPRPFCQPRP	0.53
RRIRQRPPRLPRPRPRPFCVPRP	-0.0258
RRIRQRPPRLPRPRPRPFDIPRP	-0.16
RRIRQRPPRLPRPRPRPFFHPRP	-0.532
RRIRQRPPRLPRPRPRPFFSPRP	-0.313
RRIRQRPPRLPRPRPRPFFVPRP	-0.0254
RRIRQRPPRLPRPRPRPFISPRP	-0.0195
RRIRQRPPRLPRPRPRPFNFPRP	-0.16
RRIRQRPPRLPRPRPRPFNMPRP	0.00759
RRIRQRPPRLPRPRPRPFNPPRP	-0.077
RRIRQRPPRLPRPRPRPFQFPRP	-0.252
RRIRQRPPRLPRPRPRPFQYPRP	-0.306
RRIRQRPPRLPRPRPRPFSYPRP	-0.0227

Sequence	shrunken log2 fold change
RRIRQRPPRLPRPRPRPFVEPRP	-0.152
RRIRQRPPRLPRPRPRPFVRPRP	-0.0842
RRIRQRPPRLPRPRPRPGAVPRP	0.274
RRIRQRPPRLPRPRPRPGCAPRP	0.507
RRIRQRPPRLPRPRPRPGCRPRP	0.342
RRIRQRPPRLPRPRPRPGEPPRP	-0.00996
RRIRQRPPRLPRPRPRPGESPRP	0.0357
RRIRQRPPRLPRPRPRPGHLPRP	-0.0699
RRIRQRPPRLPRPRPRPGKHPRP	0.0941
RRIRQRPPRLPRPRPRPGLQPRP	-0.0156
RRIRQRPPRLPRPRPRPGMGPRP	0.33
RRIRQRPPRLPRPRPRPGMHPRP	-0.0509
RRIRQRPPRLPRPRPRPGPAPRP	0.114
RRIRQRPPRLPRPRPRPGPDPRP	0.163
RRIRQRPPRLPRPRPRPGPTPRP	0.0273
RRIRQRPPRLPRPRPRPGQLPRP	-0.0292
RRIRQRPPRLPRPRPRPGQTPRP	0.00514
RRIRQRPPRLPRPRPRPGQYPRP	-0.156
RRIRQRPPRLPRPRPRPGRKPRP	0.249
RRIRQRPPRLPRPRPRPGRSPRP	0.105
RRIRQRPPRLPRPRPRPGVTPRP	0.0644
RRIRQRPPRLPRPRPRPGWQPRP	-0.00211
RRIRQRPPRLPRPRPRPGYKPRP	-0.0992
RRIRQRPPRLPRPRPRPHCCPRP	-0.0421
RRIRQRPPRLPRPRPRPHCLPRP	0.0735

Sequence	shrunken log2 fold change
RRIRQRPPRLPRPRPRPHDPPRP	0.142
RRIRQRPPRLPRPRPRPHEFPRP	-0.287
RRIRQRPPRLPRPRPRPHEGPRP	-0.0113
RRIRQRPPRLPRPRPRPHEIPRP	-0.0149
RRIRQRPPRLPRPRPRPHEPPRP	-0.00369
RRIRQRPPRLPRPRPRPHESPRP	-0.126
RRIRQRPPRLPRPRPRPHFHPRP	-0.396
RRIRQRPPRLPRPRPRPHFSPRP	-0.508
RRIRQRPPRLPRPRPRPHGMPRP	0.0346
RRIRQRPPRLPRPRPRPHHIPRP	-0.764
RRIRQRPPRLPRPRPRPHKFPRP	-0.279
RRIRQRPPRLPRPRPRPHLVPRP	0.00244
RRIRQRPPRLPRPRPRPHNFPRP	-0.154
RRIRQRPPRLPRPRPRPHPPPRP	0.667
RRIRQRPPRLPRPRPRPHREPRP	-0.152
RRIRQRPPRLPRPRPRPHRIPRP	-0.0425
RRIRQRPPRLPRPRPRPHSTPRP	-0.149
RRIRQRPPRLPRPRPRPHTDPRP	-0.228
RRIRQRPPRLPRPRPRPHTLPRP	-0.263
RRIRQRPPRLPRPRPRPHVLPRP	0.0625
RRIRQRPPRLPRPRPRPHWRPRP	-0.374
RRIRQRPPRLPRPRPRPHYHPRP	-0.127
RRIRQRPPRLPRPRPRPHYKPRP	-1.18
RRIRQRPPRLPRPRPRPHYMPRP	-0.474
RRIRQRPPRLPRPRPRPHYPPRP	-0.219

Sequence	shrunken log2 fold change
RRIRQRPPRLPRPRPRPIAIPRP	0.00329
RRIRQRPPRLPRPRPRPICGPRP	-0.0167
RRIRQRPPRLPRPRPRPICIPRP	-0.0334
RRIRQRPPRLPRPRPRPIDHPRP	-0.0445
RRIRQRPPRLPRPRPRPIECPRP	-0.0217
RRIRQRPPRLPRPRPRPIFPPRP	0.122
RRIRQRPPRLPRPRPRPIHVPRP	-0.15
RRIRQRPPRLPRPRPRPIHYPRP	0.0133
RRIRQRPPRLPRPRPRPILQPRP	0.292
RRIRQRPPRLPRPRPRPILVPRP	-0.0138
RRIRQRPPRLPRPRPRPIMHPRP	-0.172
RRIRQRPPRLPRPRPRPIMQPRP	-0.0377
RRIRQRPPRLPRPRPRPINNPRP	-0.803
RRIRQRPPRLPRPRPRPIPMPRP	-0.639
RRIRQRPPRLPRPRPRPIPYPRP	-0.0122
RRIRQRPPRLPRPRPRPIRAPRP	0.0231
RRIRQRPPRLPRPRPRPISHPRP	-0.421
RRIRQRPPRLPRPRPRPISSPRP	0.00776
RRIRQRPPRLPRPRPRPITIPRP	-0.239
RRIRQRPPRLPRPRPRPITNPRP	-0.158
RRIRQRPPRLPRPRPRPIVCPRP	-0.137
RRIRQRPPRLPRPRPRPIVDPRP	0.0252
RRIRQRPPRLPRPRPRPIWVPRP	-0.344
RRIRQRPPRLPRPRPRPIYMPRP	-0.113
RRIRQRPPRLPRPRPRPIYNPRP	-0.478

Sequence	shrunken log2 fold change
RRIRQRPPRLPRPRPRPKAIPRP	0.0432
RRIRQRPPRLPRPRPRPKDYPRP	-0.756
RRIRQRPPRLPRPRPRPKFVPRP	-0.105
RRIRQRPPRLPRPRPRPKGEPRP	-0.031
RRIRQRPPRLPRPRPRPKGTPRP	0.109
RRIRQRPPRLPRPRPRPKHHPRP	-0.391
RRIRQRPPRLPRPRPRPKIRPRP	0.00599
RRIRQRPPRLPRPRPRPKLFPRP	-0.0707
RRIRQRPPRLPRPRPRPKLTPRP	-0.0707
RRIRQRPPRLPRPRPRPKNVPRP	0.225
RRIRQRPPRLPRPRPRPKQIPRP	-0.103
RRIRQRPPRLPRPRPRPKRDPRP	0.114
RRIRQRPPRLPRPRPRPKRKPRP	0.684
RRIRQRPPRLPRPRPRPKRLPRP	0.281
RRIRQRPPRLPRPRPRPKSIPRP	-0.695
RRIRQRPPRLPRPRPRPKSMPRP	-0.179
RRIRQRPPRLPRPRPRPKTTPRP	-0.636
RRIRQRPPRLPRPRPRPKVEPRP	-0.00957
RRIRQRPPRLPRPRPRPKVKPRP	-0.223
RRIRQRPPRLPRPRPRPKVMPRP	-0.0261
RRIRQRPPRLPRPRPRPKWTPRP	-0.164
RRIRQRPPRLPRPRPRPKYLPRP	-0.0386
RRIRQRPPRLPRPRPRPLAVPRP	0.0758
RRIRQRPPRLPRPRPRPLCDPRP	-0.131
RRIRQRPPRLPRPRPRPLDAPRP	0.109
